Assay results taken from publication PMC5811034, “Xylem specific activation of 5’ upstream regulatory region of two NAC transcription factors (MusaVND6 and MusaVND7) in banana is regulated by SNBE-like sites”.

Experiments:
Assay in all cases: EMSA; 10 mM Tris pH 8, 5 mM MgCl2, 10 mM KCl, 20 min (temperature not stated); 1.5% agarose gel
Conditions in all cases: protein: recombinant, chain copies: 2
VND3 (MusaVND3) = biological target: T1, VND3 (MusaVND3) (Musa (banana), cultivar  for …, UniProt A0A0G2UF56 1-336)
T1 sequence: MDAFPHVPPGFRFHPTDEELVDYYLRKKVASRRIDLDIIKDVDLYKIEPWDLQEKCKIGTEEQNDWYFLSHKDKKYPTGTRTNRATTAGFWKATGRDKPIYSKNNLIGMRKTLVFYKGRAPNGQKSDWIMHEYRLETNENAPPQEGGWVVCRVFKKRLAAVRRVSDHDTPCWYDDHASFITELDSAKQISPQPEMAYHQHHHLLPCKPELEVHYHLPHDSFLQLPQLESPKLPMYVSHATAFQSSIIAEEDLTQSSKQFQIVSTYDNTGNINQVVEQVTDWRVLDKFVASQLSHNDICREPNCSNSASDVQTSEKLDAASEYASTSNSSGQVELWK

VND1 (MusaVND1) = biological target: T2, VND1 (MusaVND1) (Musa (banana), cultivar  for …, UniProt A0A0U3BXB0 1-329)
T2 sequence: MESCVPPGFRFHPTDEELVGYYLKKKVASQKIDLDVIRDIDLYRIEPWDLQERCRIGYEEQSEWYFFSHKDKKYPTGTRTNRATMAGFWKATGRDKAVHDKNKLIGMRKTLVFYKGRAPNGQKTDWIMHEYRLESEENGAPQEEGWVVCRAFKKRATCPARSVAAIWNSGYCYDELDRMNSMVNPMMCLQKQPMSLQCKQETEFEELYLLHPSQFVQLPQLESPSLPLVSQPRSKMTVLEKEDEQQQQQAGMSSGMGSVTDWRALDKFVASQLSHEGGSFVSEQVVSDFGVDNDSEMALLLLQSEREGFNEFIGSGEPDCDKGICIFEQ

VND2 (MusaVND2) = biological target: T3, VND2 (MusaVND2) (Musa (banana), cultivar  for …, UniProt A0A0G2UKP9 1-329)
T3 sequence: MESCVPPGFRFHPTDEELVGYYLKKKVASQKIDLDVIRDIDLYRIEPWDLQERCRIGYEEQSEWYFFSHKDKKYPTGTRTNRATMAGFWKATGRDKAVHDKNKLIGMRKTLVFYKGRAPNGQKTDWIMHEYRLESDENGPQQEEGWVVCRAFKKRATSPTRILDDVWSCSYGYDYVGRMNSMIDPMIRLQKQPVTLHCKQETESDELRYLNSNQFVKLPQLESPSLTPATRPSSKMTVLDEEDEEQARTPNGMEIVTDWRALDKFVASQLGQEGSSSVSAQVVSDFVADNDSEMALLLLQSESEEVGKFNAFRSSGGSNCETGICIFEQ

B1: mSNBE PMusaVND7 (dsDNA)
DNA 1: CCTTCGGAAAGCACTCATTTAGGTTGG
DNA 2: CCAACCTAAATGAGTGCTTTCCGAAGG
B1: no binding (VND3 (MusaVND3)); no binding (VND1 (MusaVND1)); no binding (VND2 (MusaVND2)).

B2: SNBE-like site PMusaVND6 (-220 to -201), 38 bp (dsDNA)
DNA 1: AATTCGATAGCCTTAGTTGTAGGGCTCAAGATTTTGGT
DNA 2: ACCAAAATCTTGAGCCCTACAACTAAGGCTATCGAATT
B2: binds (VND3 (MusaVND3); AGTTGTAGGGCTCAAGATT mutant); binds (VND1 (MusaVND1); AGTTGTAGGGCTCAAGATT mutant); binds (VND2 (MusaVND2); AGTTGTAGGGCTCAAGATT mutant).

B3: mSNBE PMusaVND6 (dsDNA)
DNA 1: CCTTCGTAAAAGGGCTCTTTAGGTTGG
DNA 2: CCAACCTAAAGAGCCCTTTTACGAAGG
B3: no binding (VND3 (MusaVND3)); no binding (VND1 (MusaVND1)); no binding (VND2 (MusaVND2)).

B4: SNBE-like site PMusaVND7 (-186 to -167), 38 bp (dsDNA)
DNA 1: AATTCGATAGCCTTTGGCGTGCACTCAAAGAAATTGGT
DNA 2: ACCAATTTCTTTGAGTGCACGCCAAAGGCTATCGAATT
B4: binds (VND3 (MusaVND3); TGGCGTGCACTCAAAGAAA mutant); binds (VND1 (MusaVND1); TGGCGTGCACTCAAAGAAA mutant); binds (VND2 (MusaVND2); TGGCGTGCACTCAAAGAAA mutant).
